According to article PMC9637739:

Tests used:
[1] = molecular target: G. haemolysans IgA1P-E1848A (residues 907-2201) (Gemella haemolysans); assay: ELISA; metallo-IgA1P mutant coated on Nunc MaxiSorp plate (20 nM by the methods, 100 nM by the legend of Fig. 2d), blocked 2 h at room temperature, human IgA1 with kappa LC added for 2 h, detected with anti-human IgA HRP and ABTS; estimated Kd
[2] = molecular target: S. pneumoniae IgA1P-E1605A (Streptococcus pneumoniae) (UniProt Q59947); assay: as above

Question: For “Human IgA1 with kappa LC (monomeric) (antibody)”, which Kd [1] is on record?
Answer: 1090 µM

Question: And the Kd [2]?
Answer: 798 µM
